Measurements: the DeepSol protein solubility set

Test: soluble on expression in E. coli; label from the status in PepcDB or PDB records

Sequence | soluble on expression in E. coli
VIALLAPGQGSQTEGMLSPWLQLPGAADQIAAWSKAADLDLARLGTTASTEEITDTAVAQPLIVAATLLAHQELARRCVLAGKDVIVAGHSVGEIAAYAIAGVIAADDAVALAATRGAEMAKACATEPTGMSAVLGGDETEVLSRLEQLDLVPANRNAAGQIVAAGRLTALEKLAEDPPAKARVRALGVAGAFHTEFMAPALDGFAAAAANIATADPTATLLSNRDGKPVTSAAAAMDTLVSQLTQPVRWDLCTATLREHTVTAIVEFPPAGTLSGIAKRELRGVPARAVKSPADLDELANL | not soluble
VILKDALLMGTKLLKSADIDTPALEAGVLLCRVLNVDRSYLYSHDDYNMTEEEYKKFTLFLEERIKGKPLQYITGHQEFMSLDFIVTPDVLIPRQDTETLVEAVLTHVKSTGLENARILDIGTGSGCIAVSLAHFLKDSRVLALDISEKALEIAETNAKRCGVWDRMFFLKGDALEGLAGIIAQSPFAKDFERKGEGFFDIIVSNPPYIPSEEIKTLHKQVKDYEPRTALDGGIDGLDFYRAITCEAAKLLSTDSLLAFEVGYNQAENVSEFMKESFSAIKVVKDLAGIDRVVMGCRKQLKD | soluble
VKAKKQETAATMKDVALKAKVSTATVSRALMNPDKVSQATRNRVEKAAREVGYLPQPMGRNVKRNESRTILVIVPDICDPFFSEIIRGIEVTAANHGYLVLIGDCAHQNQQEKTFIDLIITKQIDGMLLLGSRLPFDASIEEQRNLPPMVMANEFAPELELPTVHIDNLTAAFDAVNYLYEQGHKRIGCIAGPEEMPLCHYRLQGYVQALRRCGIMVDPQYIARGDFTFEAGSKAMQQLLDLPQPPTAVFCHSDVMALGALSQAKRQGLKVPEDLSIIGFDNIDLTQFCDPPLTTIAQPRYEIGREAMLLLLDQMQGQHVGSGSRLMDCELIIRGSTRALP | soluble
VKILVDENMPYARDLFSRLGEVTAVPGRPIPVAQLADADALMVRSVTKVNESLLAGKPIKFVGTATAGTDHVDEAWLKQAGIGFSAAPGCNAIAVVEYVFSSLLMLAERDGFSLYDRTVGIVGVGNVGRRLQARLEALGIKTLLCDPPRADRGDEGDFRSLDELVQRADILTFHTPLFKDGPYKTLHLADEKLIRSLKPGAILINACRGAVVDNTALLTCLNEGQKLSVVLDVWEGEPELNVELLKKVDIGTSHIAGYTLEGKARGTTQVFEAYSKFIGHEQHVALDTLLPAPEFGRITLHGPLDQPTLKRLVHLVYDVRRDDAPLRKVAGIPGEFDKLRKNYLERREWSSLYVICDDASAASLLCKLGFNAVHHPAR | soluble
VLRSKSLCHDEIENLLDSDHRELIGDYSKAFLLQTVDGKHQDLKYISPETMVALLTGKFSNIVDKFVIVDCRYPYEYEGGHIKTAVNLPLERDAESFLLKSPIAPCSLDKRVILIFHCEFSSERGPRMCRFIRERDRAVNDYPSLYYPEMYILKGGYKEFFPQHPNFCEPQDYRPMNHEAFKDELKTFRLKTRSWAGERSRRELCSRLQDQ | soluble
VNSVQIKNATAIVTGASSGIGLAFASLLAQKGYNLLLIARNINKLNDLAKTLSTQYDTQCNVLSIDLSEENASKKVLEYIITNNLNISVLINNAGFSGNYKFLEADWSQLSKELNVMSIAVTELCYLIAPLMEKNSWGRIINVSSGAAYLPPTQSLLYTGLKSYVLNFSQSLDMELKPKGINVTALCPGFTRSEFHNTMGTNKQVSKVPNFLWQA | not soluble
VQFQEYVFLQFLGLDKAPSPQKFQPVPYILKKIFQDREAAATTGVSRDLCYVKELGVRGNVLRFLPDQGFFLYPKKISQASSCLQKLLYFNLSAIKEREQLTLAQLGLDLGPNSYYNLGPELELALFLVQEPHVWGQTTPKPGKMFVLRSVPWPQGAVHFNLLDVAKDWNDNPRKNFGLFLEILVKEDRDSGVNFQPEDTCARLRCSLHASLLVVTLNPDQCHPSRKRRAAIPVPKLSCKNLCHRHQLFINFRDLGWHKWIIAPKGFMANYCHGECPFSLTISLNSSNYAFMQALMHAVDPEIPQAVCIPTKLSPISMLYQDNNDNVILRHYEDMVVDECGCG | soluble
VQQLSLFGSIGDDGYDLLISTLTTISGNPPLLYNSLCTVWKPNPSYDVENVNSRNQLVEPNRIKLSKEVPFSYLIDETMMDKPLNFRILKSFTNDKIPLNYAMTRNILHNTVPQVTNFNSTNEDQNNSKHTEDTVNESRNSDDIIDVDMDASPAPSNESCSPWSLQISDIPAAGNNRSVSMQTIAETIILSSAGKNSSVSSLMNGLGYVFEFQYLTIGVKFFMKHGLILELQKIWQIEEAGNSQITSGGFLLKAYINVSRGTDIDRINYTETVLMNLKKELQGYIELSVPDRQSMDSRVAHGNILIAAALEHHHHHH | soluble
VSQRPFRDRVLHLLALRPYRKAELLLRLQKDGLTQADKDALDGLLQQVANMSAKDGTCTLQDCMYKDVQKDWPGYSEGDQQLLKRVLVRKL | soluble
VTAEIRLYITEGEVEDYRVFLERLEQSGLEWRPATPEDADAVIVLAGLWGTRRDEILGAVDLARKSSKPIITVRPYGLENVPPELEAVSSEVVGWNPHCIRDALEDALDVI | soluble
VTVHSTPVRRSSGPAPQSLLSARRVSALPTPASRRCSGLPPMTPKTMPRAVGSPLCVPARRRSSEPRKNSAMRTEPTRESNRKTDSRLVDVSPDRGSPPSRVPQALNFSPEESDSTFSKSTATEVAREEAKPGGDAAPSEALLVDIKLEPLAVTPDAASQPLIDLPLIDFCDTPEAHVAVGSESRPLIDLMTNTPDMNKNVAKPSPVVGQLIDLSSPLIQLSPEADKENVDSPLLKF | not soluble
VWPTAKQAASLIGLDPKLLVAQAALETGWGRFVTRDADGSSSNNLFNIKTGSHSEVESIQVKTTEYIADTPIKINASFRKYPSIEHSFHDYVSLIKGSERYQMALANAENPEIFVSELNKAGYATDPNYSNKILSIYHGDELNQAIQRCESFEQS | not soluble
VYRTPRTCSPHFPAGPARVINPGLHELHASAGDERDAPIGINFRSPRMRMAGEFVPDSGACDAAHGGSAAPTRKAGMRIGGAAAGKVE | not soluble
WRRLLESLQQGRRSEERNRLVVERTNQAILLLEPGAGTIIDANPATCVLLGFSRNELTGADIHALLSGPVQEVDSELERCLRETRELSLCHRDGAELVVEAMATQVPHGDDQALCLMFHDIT | not soluble
WSAEDKHKEGVNSHLWIVNRAIDIMSRNTTLVKQDRVAQLNEWRTELENGIYAANYENPYYDNSTFASHFYDPDNGKTYIPFAKQAKETGAKYFKLAGESYKNKDMKQAFFYLGLSLHYLGDVNQPMHAANFTNLSYPQGFHSKYENFVDTIKDNYKVTDGNGYWNWKGTNPEEWIHGAAVVAKQDYSGIVNDNTKDWFVKAAVSQEYADKWRAEVTPMTGKRLMDAQRVTAGYIQLWFDTYGDR | soluble
WVFFVEDGETIRVRLRSKGPVINTVAMEHNGGGHPMAAGAKAKSWEETDKIV | soluble
YDTVIRNRQTNDVNYLKRLAKKFGFSETQFMTTYQSSELAANLDEERQVVSRLKINQLPAYVVTYNEQSYVIKGVLKYKEWLDIIQQITN | not soluble
YHHSVVVGNLSEAACESIGENGLLARVGSYYHDLGKTRRPHFFIENQMKMENPHDRISPQLSATIIISHPYDGAKMLKEYKMPKEIIDIAEQHHGTSLLKYFYHKAQQESDQEVEETSFRYPGPKAQSKVAAIVGIADSVEA | soluble
YTDKYDKINLQEILENKRLLESYMDCVLGKGKCTPEGKELKDHLQEALETGCEKCTEAQEKGAETSIDYLIKNELEIWKELTAHFDPDGKWRKKYEDRAKAKGIVIPE | soluble
